Laboratory results as given in patent publication WO2013139956A1 (dated 2013).
Ends that are not written are not given here. * marks the point of attachment. Biotin = O=C1N[C@H]2[C@H](CS[C@H]2CCCCC(=O)*)N1

T1: human lactadherin (human, UniProt Q08431 24-387)
T1 sequence (looked up): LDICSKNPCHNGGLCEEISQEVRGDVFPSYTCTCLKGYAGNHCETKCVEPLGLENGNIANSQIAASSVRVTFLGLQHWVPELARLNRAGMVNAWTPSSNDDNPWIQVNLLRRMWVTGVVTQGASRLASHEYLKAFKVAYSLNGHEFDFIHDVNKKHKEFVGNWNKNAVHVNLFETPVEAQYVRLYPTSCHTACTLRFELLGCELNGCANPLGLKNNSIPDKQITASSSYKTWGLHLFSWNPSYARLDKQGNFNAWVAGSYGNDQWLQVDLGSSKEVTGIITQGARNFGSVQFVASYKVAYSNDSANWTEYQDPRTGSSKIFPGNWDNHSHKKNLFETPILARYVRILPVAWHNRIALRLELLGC

T2: peptide … (SEQ ID NO:51), N-terminally biotinylated (human)
T2 sequence (peptide, N-terminally biotinylated): EISQEVRGDVFPSY

T3: peptide … (SEQ ID NO:74), N-terminally biotinylated (human)
T3 sequence (peptide, N-terminally biotinylated): EISQEVAGDVFPSY

T4: peptide … (SEQ ID NO:75), N-terminally biotinylated (human)
T4 sequence (peptide, N-terminally biotinylated): EISQEVRADVFPSY

T5: peptide … (SEQ ID NO:77), N-terminally biotinylated (human)
T5 sequence (peptide, N-terminally biotinylated): EISQEVAADVFPSY

T6: peptide EISQEVRGAVFPSY (SEQ ID NO:76), N-terminally biotinylated (human)
T6 peptide: Biotin-EISQEVRGAVFPSY

T7: peptide EISQEVRAAVFPSY (SEQ ID NO:78), N-terminally biotinylated (human)
T7 peptide: Biotin-EISQEVRAAVFPSY

T8: peptide EISQEVAGAVFPSY (SEQ ID NO:79), N-terminally biotinylated (human)
T8 peptide: Biotin-EISQEVAGAVFPSY

T9: peptide EISQEVAAAVFPSY (SEQ ID NO:80), N-terminally biotinylated (human)
T9 peptide: Biotin-EISQEVAAAVFPSY

T10: peptide NGGLCEEISQEVRG (SEQ ID NO:81), N-terminally biotinylated (human)
T10 construct: Human lactadherin 14-mer with part of the RGD domain at the C-terminus
T10 peptide: Biotin-NGGLCEEISQEVRG

T11: peptide HNGGLCEEISQEVR (SEQ ID NO:82), N-terminally biotinylated (human)
T11 construct: Human lactadherin 14-mer with part of the RGD domain at the C-terminus
T11 peptide: Biotin-HNGGLCEEISQEVR

T12: peptide CHNGGLCEEISQEV (SEQ ID NO:83), N-terminally biotinylated (human, cysteine pairing not given here)
T12 peptide: Biotin-CHNGGLCEEISQEV

T13: peptide GDVFPSYTCTCLKG (SEQ ID NO:84), N-terminally biotinylated (human, cysteine pairing not given here)
T13 construct: Human lactadherin 14-mer with part of the RGD domain at the N-terminus
T13 peptide: Biotin-GDVFPSYTCTCLKG

T14: peptide DVFPSYTCTCLKGY (SEQ ID NO:85), N-terminally biotinylated (human, cysteine pairing not given here)
T14 construct: Human lactadherin 14-mer with part of the RGD domain at the N-terminus
T14 peptide: Biotin-DVFPSYTCTCLKGY

T15: peptide VFPSYTCTCLKGYA (SEQ ID NO:86), N-terminally biotinylated (human, cysteine pairing not given here)
T15 peptide: Biotin-VFPSYTCTCLKGYA


Key:
human lactadherin = biological target: T1, human lactadherin; experiment: cell-based or functional assay
[1] = biological target: T2, peptide … (SEQ ID NO:51), N-terminally biotinylated (human); experiment: ELISA, biotin-peptide on neutravidin plate, antibody 1 ug/ml
[2] = biological target: T3, peptide … (SEQ ID NO:74), N-terminally biotinylated (human); experiment: as above
[3] = biological target: T4, peptide … (SEQ ID NO:75), N-terminally biotinylated (human); experiment: as above
[4] = biological target: T5, peptide … (SEQ ID NO:77), N-terminally biotinylated (human); experiment: as above
[5] = biological target: T6, peptide EISQEVRGAVFPSY (SEQ ID NO:76), …; experiment: as above
[6] = biological target: T7, peptide EISQEVRAAVFPSY (SEQ ID NO:78), …; experiment: as above
[7] = biological target: T8, peptide EISQEVAGAVFPSY (SEQ ID NO:79), …; experiment: as above
[8] = biological target: T9, peptide EISQEVAAAVFPSY (SEQ ID NO:80), …; experiment: as above
[9] = biological target: T10, peptide NGGLCEEISQEVRG (SEQ ID NO:81), …; experiment: as above
[10] = biological target: T11, peptide HNGGLCEEISQEVR (SEQ ID NO:82), …; experiment: as above
[11] = biological target: T12, peptide CHNGGLCEEISQEV (SEQ ID NO:83), …; experiment: as above
[12] = biological target: T13, peptide GDVFPSYTCTCLKG (SEQ ID NO:84), …; experiment: as above
[13] = biological target: T14, peptide DVFPSYTCTCLKGY (SEQ ID NO:85), …; experiment: as above
[14] = biological target: T15, peptide VFPSYTCTCLKGYA (SEQ ID NO:86), …; experiment: as above

decrease of SKOV-3 cell migration towards lactadherin, antibody at 5 ug/mL (human lactadherin) [%] | inhibition of SKOV-3 cell adhesion to coated human lactadherin, antibody at 5 ug/mL (human lactadherin) [%] | absorbance 450 nm minus 540 nm [1] [absorbance] | absorbance 450 nm minus 540 nm [2] [absorbance] | absorbance 450 nm minus 540 nm [3] [absorbance] | absorbance 450 nm minus 540 nm [4] [absorbance] | absorbance 450 nm minus 540 nm [5] [absorbance] | absorbance 450 nm minus 540 nm [6] [absorbance] | absorbance 450 nm minus 540 nm [7] [absorbance] | absorbance 450 nm minus 540 nm [8] [absorbance] | absorbance 450 nm minus 540 nm [9] [absorbance] | absorbance 450 nm minus 540 nm [10] [absorbance] | absorbance 450 nm minus 540 nm [11] [absorbance] | absorbance 450 nm minus 540 nm [12] [absorbance] | absorbance 450 nm minus 540 nm [13] [absorbance] | absorbance 450 nm minus 540 nm [14] [absorbance] | Binder
> 80 | > 70 | 1.62 | 0.24 | 0.69 | 0.2 | 0.03 | 0.02 | 0.03 | 0.02 | 0.03 | 0.02 | 0.02 | 0.03 | 0.04 | 0.03 | anti-lactadherin antibody 399A12 (antibody, V domains shown, Murine monoclonal, kappa light chain; Variable regions identical to those of 416H9; also called hybridoma 399A12; LMBP 9491CB) VH: QVTLKESGPGVLQSSQTLSLTCSFSGFSLSTSGLGVIWIRQPSGAGLEWLAQIYWDDNKRYNPSLKSRLTISKDTSRNQVFLKITPVDTADTATYYCARRTFYDYDEGFYAMDYWGQGTSVTVSS VL: DIQMTQTTSSLSASLGDRVTITCRASQDISNYLNWYQQKPDGTIKLLIYYASRLHSGVPSRFSGSGSGTDYSLTISNLEQEDIATYFCQQGNTLPLTFGAGTKLELKR
> 80 | > 70 | 1.76 | 0.25 | 0.7 | 0.19 | 0.02 | 0.02 | 0.05 | 0.02 | 0.02 | 0.03 | 0.03 | 0.03 | 0.03 | 0.03 | anti-lactadherin antibody 416H9 (antibody, IgG1, V domains shown, also called hybridoma 416H9; LMBP 9492CB) VH: QVTLKESGPGVLQSSQTLSLTCSFSGFSLSTSGLGVIWIRQPSGAGLEWLAQIYWDDNKRYNPSLKSRLTISKDTSRNQVFLKITPVDTADTATYYCARRTFYDYDEGFYAMDYWGQGTSVTVSS VL: DIQMTQTTSSLSASLGDRVTITCRASQDISNYLNWYQQKPDGTIKLLIYYASRLHSGVPSRFSGSGSGTDYSLTISNLEQEDIATYFCQQGNTLPLTFGAGTKLELKR
 | > 70 | 1.1 | 0.52 | 0.74 | 0.23 | 0.1 | 0.02 | 0.03 | 0.02 | 0.03 | 0.03 | 0.03 | 0.04 | 0.04 | 0.05 | anti-lactadherin antibody 215A9 (antibody, IgG1, V domains shown, also called 2154A9; hybridoma 215A9) VH: QVSLKESGPGILQSSQTLSLTCSFSGFSLSTSGMGVSWIRQPSGKGLEWLAHIYWNDDKRYNPSLKSRLTISKDTSRDQVFLKITSVDTADTATYFCARRPRFYRDYDEGIDFWGQGTTLTVSS VL: QAVVTQESALTTSPGETVTLTCRSSTGAVTTNNYANWVQEKPDHLFTGLIGGTNNRTPGVPARFSGSLIGDKAALTITGAQTEDEAIYFCALWYSNLWVFGGGTKLTVLG
